This note sets out measurements from patent US20250360126.

Series [1] concerns Nap1 histone chaperone (a TTLL4 substrate protein).
The test system of series [2] is T1, NPM2 (embryonic NPM1 paralog).
T1 sequence (Q86SE8 1-214, species assumed, looked up): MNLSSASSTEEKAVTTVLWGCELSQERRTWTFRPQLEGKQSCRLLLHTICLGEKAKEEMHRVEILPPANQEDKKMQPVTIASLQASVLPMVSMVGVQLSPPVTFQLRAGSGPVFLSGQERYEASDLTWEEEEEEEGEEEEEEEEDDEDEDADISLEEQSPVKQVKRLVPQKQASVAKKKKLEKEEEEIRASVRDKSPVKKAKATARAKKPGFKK

Series [3] has as its target Nucleophosmin NPM1, wild type, full-length (UniProt P06748).

Nucleophosmin NPM1, wild type, full-length, sequence (P06748 whole entry): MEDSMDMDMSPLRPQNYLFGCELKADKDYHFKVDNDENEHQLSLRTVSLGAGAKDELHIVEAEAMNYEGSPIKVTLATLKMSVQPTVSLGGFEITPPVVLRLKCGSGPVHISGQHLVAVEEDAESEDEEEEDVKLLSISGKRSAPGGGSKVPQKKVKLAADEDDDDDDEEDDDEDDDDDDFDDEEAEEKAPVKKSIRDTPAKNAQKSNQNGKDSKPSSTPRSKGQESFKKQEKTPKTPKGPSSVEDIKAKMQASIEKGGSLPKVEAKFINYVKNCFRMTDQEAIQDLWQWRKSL

Turning to “active human TTLL4 enzyme (Tubulin-Tyrosine Ligase Like 4), recombinant”, the “in vitro glutamate-glutamylation, immunoblot time course (FIG. 10)” value (in the series on NPM1c (AML-mutant NPM1); in series [3]) was “AML-mutant NPM1c is a better in vitro substrate for TTLL4 than the wildtype NPM1” in each case. Besides, the in vitro glutamate-glutamylation entry in series [1] is “capable of catalyzing in vitro glutamate-glutamylation of Npm1, Npm2, and Nap1 histone chaperone substrates (not shown)”; in series [2], “capable of catalyzing in vitro glutamate-glutamylation of Npm1, Npm2, and Nap1 histone chaperone substrates (not shown)”; in series [3] it was “capable of catalyzing in vitro glutamate-glutamylation of Npm1, Npm2, and Nap1 histone chaperone substrates (not shown)”. Moreover, the “kinase reaction, 32P-labeled phosphorylation (FIG. 7B)” value in series [1] is “TTLL4 dependent 32P-labeled phosphorylation of Nap1 (a TTLL4 substrate protein)”. The “glutamate-glutamylation of substrate (FIG. 2B)” value in series [3] is “TTLL4 glutamylates full-length NPM1”.
